Measured values taken from patent publication US20220204599A1 (published 2022).
Where a chain is given by its changes, count along the chain named. Read-outs that look alike come from different tables or passages of the source.

B1: CTHRC1-His (other)
chain: GAVGASEIPKGKQKAQLRQREVVDLYNGMCLQGPAGVPGRDGSPGANGIPGTPGIPGRDGFKGEKGECLRESFEESWTPNYKQCSWSSLNYGIDLGKIAECTFTKMRSNSALRVLFSGSLRLKCRNACCQRWYFTFNGAECSGPLPIEAIIYLDQGSPEMNSTINIHRTSSVEGLCEGIGAGLVDVAIWVGTCSDYPKGDASTGWNSVSRIIIEELPKLAASANSAVDHHHHHHHH
B2: hCMAb45 humanized anti-CTHRC1 antibody (antibody, V domains shown)
VH: QVQLVESGAEVKKPGASVKVSCKASGYSFTDYIILWVRQAPGQGLEWMGAINPYYGSTVYGQKFQGRLTITADGSMSTAYMELSSLRSEDTAVYYCARSGYGYDESAMDYWGQGTLVTVSS
VL: DIVMTQTPLSLPVTPGEPASISCRSSKSLLNSDGFTYLDWYLQKPGQSPQLLIYLVSNRFSGVPDRFSGSGSGTDFTLKISRVEAEDVGVYYCFQSNYLPLTFGQGTKLEIK
B3: cCMAb45 anti-CTHRC1 chimeric antibody (antibody, V domains shown)
VH: EVQLQQSGPELVKPGASVKISCKASGYSFTDYIMLWVKQSHGKSLEWIGNINPYYGSTSYNLKFKGKATLTVDKSSSTAYMQLNSLTSEDSAVYYCARSGYGYDESAMDYWGQGTSVTVSS
VL: B2 VL with I2V, V3L, T14N, P15I, E17D, P18Q, R24K, S26T, V88L, Q105S
B4: hCMAb96 humanized anti-CTHRC1 antibody (antibody, V domains shown)
VH: QVQLVQSGAEVKKPGASVKVSCKASGYTFTSYWMHWVRQAPGQGLEWIGYIYPSSGTTNYNQKFQGRVTITADESTSTAYMELSPLRSEDTAVYYCTTESYWGQGTTVTVSS
VL: DIQMTQSPSSLSASLGDTITITCHASQNINVWLAWYQQKPGKAPKLLIYKASNLHSGVPSRFSGSGSGTDFTLTISSLQPEDIATYYCQQGQSYPLTFGQGTKVEIK
B5: cCMAb96 anti-CTHRC1 chimeric antibody (antibody, V domains shown)
VH: QVQLQQPGSELVRPGASVKLSCKASGYTFTSYWMHWVKQRPGQGLEWIGNIYPSSGTTNYDEKFKNKATLTVDTSSTTAYMHLSSLTSEDSAVYYCTTESYWGQGTTLTVSS
VL: B4 VL with Q3V, A34S, K42N, A43I, S56T, D70G, Q100G, V104L

Tests used:
Assay in all cases: ELISA
[1] = target: SA2763
[2] = target: SA2764
[3] = target: SA2766
[4] = target: SA2771
[5] = target: SA2767
[6] = target: SA2773
[7] = target: SA2772
[8] = target: SA2758
[9] = target: SA2760
[10] = target: B1
[11] = target: B1; remark: listed apart in the source

Binder: B1
Kd [1]: 0.25 nM
Kd [2]: 0.175 nM
Kd [3]: 0.202 nM
Kd [4]: 0.221 nM
Kd [5]: 0.48 nM
Kd [6]: 0.3 nM
Kd [7]: 0.406 nM
Kd [8]: 0.082 nM
Kd [9]: 0.118 nM

Binder: B2
Kd [10]: 0.128 nM
Kd [11]: 0.089 nM

Binder: B3
Kd [10]: 0.257 nM
Kd [11]: 0.093 nM

Binder: B4
Kd [10]: 0.196 nM
Kd [11]: 0.131 nM

Binder: B5
Kd [10]: 0.187 nM
Kd [11]: 0.128 nM
